Reference: the supplement of paper PMC5998384

Key:
[1] = system: HeLa Kyoto; assay: solubility change mitosis vs G1/S (difference of NP-40 vs SDS log2 ratios) (log2 ratio difference); higher = more soluble in mitosis
[2] = system: HeLa Kyoto; assay: melting temperature (median over replicates), in situ; higher = more thermally stable
[3] = system: HeLa Kyoto; assay: solubility in G1/S (NP-40 vs SDS abundance) (log2 ratio); higher = more soluble; settings: cell cycle stage: G1/S
[4] = system: HeLa Kyoto; assay: thermal stability score vs G1/S (z-score of summed log2 fold changes over temperatures); higher = more thermally stable than in G1/S
[5] = cell cycle stage: early G1 (4.5 h after nocodazole release)
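Wherever melting temperature (median over replicates), in situ is given: HeLa Kyoto cells synchronized by double thymidine or nocodazole block, proteins quantified by TMT10plex mass spectrometry, three independent biological replicates.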
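Wherever solubility change mitosis vs G1/S (difference of NP-40 vs SDS log2 ratios) is given: synchronized HeLa Kyoto cells (double thymidine block for G1/S, nocodazole release for mitosis), protein amounts in NP-40 versus SDS lysates quantified by mass spectrometry, three biological replicates.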
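Wherever solubility in G1/S (NP-40 vs SDS abundance) is given: HeLa Kyoto cells arrested at G1/S by double thymidine block, proteins quantified by TMT10plex mass spectrometry in mild NP-40 versus SDS extracts, three biological replicates.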
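Wherever thermal stability score vs G1/S (z-score of summed log2 fold changes over temperatures) is given: synchronized HeLa Kyoto cells, proteins quantified by TMT10plex mass spectrometry, three biological replicates, mitosis taken 0.5 h after nocodazole release, G1/S directly after double thymidine block.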

CBX3, sequence (chain, as listed by the source): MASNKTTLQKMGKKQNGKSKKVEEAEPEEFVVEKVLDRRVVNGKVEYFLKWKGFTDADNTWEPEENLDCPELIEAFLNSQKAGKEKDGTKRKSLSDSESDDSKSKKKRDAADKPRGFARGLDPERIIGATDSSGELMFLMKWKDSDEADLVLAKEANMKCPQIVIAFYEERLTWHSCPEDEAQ

Substance | solubility change mitosis (log2) [1] | melting temperature ([2]; cell cycle stage: G1/S) [°C] | melting temperature ([2]; cell cycle stage: mitosis) [°C] | solubility in G1/S (log2) [3] | thermal stability score [4, 5] | thermal stability score ([4]; cell cycle stage: mitosis)
MEMEKEFEQIDKSGSWAAIYQDIRHEASDFPCRVAKLPKNKNRNRYRDVSPFDHSRIKLHQEDNDYINASLIKMEEAQRSYILTQGPLPNTCGHFWEMVWEQKSRGVVMLNRVMEKGSLKCAQYWPQKEEKEMIFEDTNLKLTLISEDIKSYYTVRQLELENLTTQETREILHFHYTTWPDFGVPESPASFLNFLFKVRESGSLSPEHGPVVVHCSAGIGRSGTFCLADTCLLLMDKRKDPSSVDIKKVLLEMRKFRMGLIQTADQLRFSYLAVIEGAKFIMGDSSVQDQWKELSHEDLEPPPEHIPPPPRPPKRILEPHNGKCREFFPNHQWVKEETQEDKDCPIKEEKGSPLNAAPYGIESMSQDTEVRSRVVGGSLRGAQAASPAKGEPSLPEKDEDHALSYWKPFLVNMCVATVLTAGAYLCYRFLFNSNT [PTPN1] | -0.122 | 49.4 | 50.1 | 0.0951 | 1.7 | 4.54
MKSLSLLLAVALGLATAVSAGPAVIECWFVEDASGKGLAKRPGALLLRQGPGEPPPRPDLDPELYLSVHDPAGALQAAFRRYPRGAPAPHCEMSRFVPLPASAKWASGLTPAQNCPRALDGAWLMVSISSPVLSLSSLLRPQPEPQQEPVLITMATVVLTVLTHTPAPRVRLGQDALLDLSFAYMPPTSEAASSLAPGPPPFGLEWRRQHLGKGHLLLAATPGLNGQMPAAQEGAVAFAAWDDDEPWGPWTGNGTFWLPTVQPFQEGTYLATIHLPYLQGQVTLELAVYKPPKVSLMPATLARAAPGEAPPELLCLVSHFYPSGGLEVEWELRGGPGGRSQKAEGQRWLSALRHHSDGSVSLSGHLQPPPVTTEQHGARYACRIHHPSLPASGRSAEVTLEVAGLSGPSLEDSVGLFLSAFLLLGLFKALGWAAVYLSTCKDSKKKAE [TAPBP] | 0.000151 | 52.5 | 53 | 0.297 | 0.903 | 1.98
MTAPCPPPPPDPQFVLRGTQSPVHALHFCEGAQAQGRPLLFSGSQSGLVHIWSLQTRRAVTTLDGHGGQCVTWLQTLPQGRQLLSQGRDLKLCLWDLAEGRSAVVDSVCLESVGFCRSSILAGGQPRWTLAVPGRGSDEVQILEMPSKTSVCALKPKADAKLGMPMCLRLWQADCSSRPLLLAGYEDGSVVLWDVSEQKVCSRIACHEEPVMDLDFDSQKARGISGSAGKALAVWSLDWQQALQVRGTHELTNPGIAEVTIRPDRKILATAGWDHRIRVFHWRTMQPLAVLAFHSAAVQCVAFTADGLLAAGSKDQRISLWSLYPRA [GNB1L] | -0.205 | 54.6 | 54.2 | 0.0814 | -0.681 | -0.0471
MPVRGDRGFPPRRELSGWLRAPGMEELIWEQYTVTLQKDSKRGFGIAVSGGRDNPHFENGETSIVISDVLPGGPADGLLQENDRVVMVNGTPMEDVLHSFAVQQLRKSGKVAAIVVKRPRKVQVAALQASPPLDQDDRAFEVMDEFDGRSFRSGYSERSRLNSHGGRSRSWEDSPERGRPHERARSRERDLSRDRSRGRSLERGLDQDHARTRDRSRGRSLERGLDHDFGPSRDRDRDRSRGRSIDQDYERAYHRAYDPDYERAYSPEYRRGARHDARSRGPRSRSREHPHSRSPSPEPRGRPGPIGVLLMKSRANEEYGLRLGSQIFVKEMTRTGLATKDGNLHEGDIILKINGTVTENMSLTDARKLIEKSRGKLQLVVLRDSQQTLINIPSLNDSDSEIEDISEIESNRSFSPEERRHQYSDYDYHSSSEKLKERPSSREDTPSRLSRMGATPTPFKSTGDIAGTVVPETNKEPRYQEDPPAPQPKAAPRTFLRPSPEDEAIYGPNTKMVRFKKGDSVGLRLAGGNDVGIFVAGIQEGTSAEQEGLQEGDQILKVNTQDFRGLVREDAVLYLLEIPKGEMVTILAQSRADVYRDILACGRGDSFFIRSHFECEKETPQSLAFTRGEVFRVVDTLYDGKLGNWLAVRIGNELEKGLIPNKSRAEQMASVQNAQRDNAGDRADFWRMRGQRSGVKKNLRKSREDLTAVVSVSTKFPAYERVLLREAGFKRPVVLFGPIADIAMEKLANELPDWFQTAKTEPKDAGSEKSTGVVRLNTVRQIIEQDKHALLDVTPKAVDLLNYTQWFPIVIFFNPDSRQGVKTMRQRLNPTSNKSSRKLFDQANKLKKTCAHLFTATINLNSANDSWFGSLKDTIQHQQGEAVWVSEGKMEGMDDDPEDRMSYLTAMGADYLSCDSRLISDFEDTDGEGGAYTDNELDEPAEEPLVSSITRSSEPVQHEESIRKPSPEPRAQMRRAASSDQLRDNSPPPAFKPEPPKAKTQNKEESYDFSKSYEYKSNPSAVAGNETPGASTKGYPPPVAAKPTFGRSILKPSTPIPPQEGEEVGESSEEQDNAPKSVLGKVKIFEKMDHKARLQRMQELQEAQNARIEIAQKHPDIYAVPIKTHKPDPGTPQHTSSRPPEPQKAPSRPYQDTRGSYGSDAEEEEYRQQLSEHSKRGYYGQSARYRDTEL [TJP2] | 0.000921 | 48.1 | 49.2 | -0.246 | 1 | 2.91
MPGETEEPRPPEQQDQEGGEAAKAAPEEPQQRPPEAVAAAPAGTTSSRVLRGGRDRGRAAAAAAAAAVSRRRKAEYPRRRRSSPSARPPDVPGQQPQAAKSPSPVQGKKSPRLLCIEKVTTDKDPKEEKEEEDDSALPQEVSIAASRPSRGWRSSRTSVSRHRDTENTRSSRSKTGSLQLICKSEPNTDQLDYDVGEEHQSPGGISSEEEEEEEEEMLISEEEIPFKDDPRDETYKPHLERETPKPRRKSGKVKEEKEKKEIKVEVEVEVKEEENEIREDEEPPRKRGRRRKDDKSPRLPKRRKKPPIQYVRCEMEGCGTVLAHPRYLQHHIKYQHLLKKKYVCPHPSCGRLFRLQKQLLRHAKHHTDQRDYICEYCARAFKSSHNLAVHRMIHTGEKPLQCEICGFTCRQKASLNWHMKKHDADSFYQFSCNICGKKFEKKDSVVAHKAKSHPEVLIAEALAANAGALITSTDILGTNPESLTQPSDGQGLPLLPEPLGNSTSGECLLLEAEGMSKSYCSGTERVSLMADGKIFVGSGSSGGTEGLVMNSDILGATTEVLIEDSDSAGP [ZFP91] | 0.0732 | 51.9 | 53.2 | -0.401 | 2.06 | 1.42
MSESGHSQPGLYGIERRRRWKEPGSGGPQNLSGPGGRERDYIAPWERERRDASEETSTSVMQKTPIILSKPPAERSKQPPPPTAPAAPPAPAPLEKPIVLMKPREEGKGPVAVTGASTPEGTAPPPPAAPAPPKGEKEGQRPTQPVYQIQNRGMGTAAPAAMDPVVGQAKLLPPERMKHSIKLVDDQMNWCDSAIEYLLDQTDVLVVGVLGLQGTGKSMVMSLLSANTPEEDQRTYVFRAQSAEMKERGGNQTSGIDFFITQERIVFLDTQPILSPSILDHLINNDRKLPPEYNLPHTYVEMQSLQIAAFLFTVCHVVIVVQDWFTDLSLYRFLQTAEMVKPSTPSPSHESSSSSGSDEGTEYYPHLVFLQNKARREDFCPRKLRQMHLMIDQLMAHSHLRYKGTLSMLQCNVFPGLPPDFLDSEVNLFLVPFMDSEAESENPPRAGPGSSPLFSLLPGYRGHPSFQSLVSKLRSQVMSMARPQLSHTILTEKNWFHYAARIWDGVRKSSALAEYSRLLA [SMG9] | -0.178 | 49 | 49.8 | 0.242 | -0.759 | -0.639
MDKLKKVLSGQDTEDRSGLSEVVEASSLSWSTRIKGFIACFAIGILCSLLGTVLLWVPRKGLHLFAVFYTFGNIASIGSTIFLMGPVKQLKRMFEPTRLIATIMVLLCFALTLCSAFWWHNKGLALIFCILQSLALTWYSLSFIPFARDAVKKCFAVCLA [SFT2D2] | 0.0654 | 57.4 | 61.1 | 0.0285 | -0.835 | -0.774
MARVAWGLLWLLLGSAGAQYEKYSFRGFPPEDLMPLAAAYGHALEQYEGESWRESARYLEAALRLHRLLRDSEAFCHANCSGPAPAAKPDPDGGRADEWACELRLFGRVLERAACLRRCKRTLPAFQVPYPPRQLLRDFQSRLPYQYLHYALFKANRLEKAVAAAYTFLQRNPKHELTAKYLNYYQGMLDVADESLTDLEAQPYEAVFLRAVKLYNSGDFRSSTEDMERALSEYLAVFARCLAGCEGAHEQVDFKDFYPAIADLFAESLQCKVDCEANLTPNVGGYFVDKFVATMYHYLQFAYYKLNDVRQAARSAASYMLFDPKDSVMQQNLVYYRFHRARWGLEEEDFQPREEAMLYHNQTAELRELLEFTHMYLQSDDEMELEETEPPLEPEDALSDAEFEGEGDYEEGMYADWWQEPDAKGDEAEAEPEPELA [P3H4] | -0.0349 | 53.2 | 53.6 | -0.293 | 0.153 | 0.25
CBX3 | 0.672 | 49.9 | 50.9 | -0.141 | 0.789 | 1.67
MKLLLLHPAFQSCLLLTLLGLWRTTPEAHASSLGAPAISAASFLQDLIHRYGEGDSLTLQQLKALLNHLDVGVGRGNVTQHVQGHRNLSTCFSSGDLFTAHNFSEQSRIGSSELQEFCPTILQQLDSRACTSENQENEENEQTEEGRPSAVEVWGYGLLCVTVISLCSLLGASVVPFMKKTFYKRLLLYFIALAIGTLYSNALFQLIPEAFGFNPLEDYYVSKSAVVFGGFYLFFFTEKILKILLKQKNEHHHGHSHYASESLPSKKDQEEGVMEKLQNGDLDHMIPQHCSSELDGKAPMVDEKVIVGSLSVQDLQASQSACYWLKGVRYSDIGTLAWMITLSDGLHNFIDGLAIGASFTVSVFQGISTSVAILCEEFPHELGDFVILLNAGMSIQQALFFNFLSACCCYLGLAFGILAGSHFSANWIFALAGGMFLYISLADMFPEMNEVCQEDERKGSILIPFIIQNLGLLTGFTIMVVLTMYSGQIQIG [SLC39A14] | -0.241 | 55.3 | 59 | -0.0657 | 1.32 | 2.81
MAASVVCRAATAGAQVLLRARRSPALLRTPALRSTATFAQALQFVPETQVSLLDNGLRVASEQSSQPTCTVGVWIDVGSRFETEKNNGAGYFLEHLAFKGTKNRPGSALEKEVESMGAHLNAYSTREHTAYYIKALSKDLPKAVELLGDIVQNCSLEDSQIEKERDVILREMQENDASMRDVVFNYLHATAFQGTPLAQAVEGPSENVRKLSRADLTEYLSTHYKAPRMVLAAAGGVEHQQLLDLAQKHLGGIPWTYAEDAVPTLTPCRFTGSEIRHRDDALPFAHVAIAVEGPGWASPDNVALQVANAIIGHYDCTYGGGVHLSSPLASGAVANKLCQSFQTFSICYAETGLLGAHFVCDRMKIDDMMFVLQGQWMRLCTSATESEVARGKNILRNALVSHLDGTTPVCEDIGRSLLTYGRRIPLAEWESRIAEVDASVVREICSKYIYDQCPAVAGYGPIEQLPDYNRIRSGMFWLRF [UQCRC1] | -0.0237 | 55.3 | 54.2 | 0.324 | -0.504 | -3.84
